In US20160264664A1:
Where “and” joins values, the source holds several entries; their conditions need not be identical. Identical values can stand only once.

Tests used:
[1] = molecular target: human chemokine receptor CXCR4 (human) (UniProt P61073); experiment: flow cytometry, stable CXCR4 CAKI clone vs CAKI WT cells
[2] = molecular target: human chemokine receptor CXCR4 (human) (UniProt P61073); experiment: flow cytometry, 12G5 then PE goat anti-mouse IgG, on HEK293 cells transiently transfected with pVAX1-CXCR4; the control panel HEK293 WT prints MCF:3918
[3] = molecular target: human chemokine receptor CXCR4 (human) (UniProt P61073); experiment: flow cytometry, pVAX1-hCXCR4 transfected HEK293 vs non-transfected HEK293 cells
[4] = molecular target: human chemokine receptor CXCR4 (human) (UniProt P61073); experiment: flow cytometry, 12G5 then PE goat anti-mouse IgG, on the stable CAKI/CXCR4 clone; the control panel CAKI WT prints MCF:1089
mouse P2X7 (mouse) [5] = molecular target: T1, mouse P2X7 (mouse) (UniProt Q9Z1M0); experiment: cell-based or functional assay
T1 sequence: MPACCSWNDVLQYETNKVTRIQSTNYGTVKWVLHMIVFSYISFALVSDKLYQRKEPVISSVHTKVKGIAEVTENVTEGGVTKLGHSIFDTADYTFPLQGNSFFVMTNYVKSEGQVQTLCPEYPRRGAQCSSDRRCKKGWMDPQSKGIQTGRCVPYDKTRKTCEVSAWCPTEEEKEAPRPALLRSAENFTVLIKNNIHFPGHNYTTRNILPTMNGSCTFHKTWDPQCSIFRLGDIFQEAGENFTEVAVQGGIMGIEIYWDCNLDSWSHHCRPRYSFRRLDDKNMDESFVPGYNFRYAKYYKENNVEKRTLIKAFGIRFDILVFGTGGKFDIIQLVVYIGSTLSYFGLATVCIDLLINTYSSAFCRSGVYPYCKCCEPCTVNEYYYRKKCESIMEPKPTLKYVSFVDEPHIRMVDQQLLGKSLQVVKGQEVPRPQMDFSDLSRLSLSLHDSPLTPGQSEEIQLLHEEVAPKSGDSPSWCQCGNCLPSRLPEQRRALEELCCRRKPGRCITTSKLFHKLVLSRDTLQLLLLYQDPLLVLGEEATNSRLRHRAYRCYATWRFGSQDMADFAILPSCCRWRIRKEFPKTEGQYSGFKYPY

[6] = molecular target: human chemokine receptor CXCR4 (human) (UniProt P61073); experiment: ELISA, periplasmic extract on CXCR4 membrane vesicles, anti-Myc detection
mouse P2X7 (mouse) [7] = molecular target: T1, mouse P2X7 (mouse); experiment: flow cytometry, purified Nanobody titrated on mP2X7-CHO cells

Sequence of human chemokine receptor CXCR4 (human) (P61073 whole entry): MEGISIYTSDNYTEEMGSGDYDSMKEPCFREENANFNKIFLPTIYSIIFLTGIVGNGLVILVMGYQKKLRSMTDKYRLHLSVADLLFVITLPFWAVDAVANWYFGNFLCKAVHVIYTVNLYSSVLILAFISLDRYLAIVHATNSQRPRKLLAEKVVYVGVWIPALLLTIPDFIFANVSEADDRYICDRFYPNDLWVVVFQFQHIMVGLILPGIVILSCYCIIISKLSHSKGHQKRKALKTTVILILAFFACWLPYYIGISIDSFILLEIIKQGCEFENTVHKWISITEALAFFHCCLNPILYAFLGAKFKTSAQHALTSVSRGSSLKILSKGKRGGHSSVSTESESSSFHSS

fluorescence shift over non-transfected camelid cells [1] [fold] | MCF [2] | fluorescence intensity shift of transfected over non-transfected cells [3] [fold] | MCF [4] | percentage of cells remaining CD62L positive after ATP or NAD (Yac-1 cells, control) (mouse P2X7 (mouse) [5]) | ELISA signal on hCXCR4 membrane vesicles over control membrane vesicles [6] | maximum MCF value (mouse P2X7 (mouse) [7]) [MCF] | Substance
114 | 152000 | 38 | 125000 |  |  |  | Human CXCR4 specific monoclonal antibody 12G5 (R&D Systems MAB170)
 |  |  |  | 2% and 20% | 1.1 | 314 to 355 | irrelevant control Nanobody (VHH)
